According to article PMC11206880, “The RNA Helicase Ded1 from Yeast Is Associated with the Signal Recognition Particle and Is Regulated by SRP21” (Molecules, 2024):

B1: His-tagged Sec65 (natural protein, yeast (S. cerevisiae), UniProt P29478 1-273, looked up)
chain: MPRLEEIDDFNDIDDLDMELAELDPSLRTPIAPKITPKVVRSQDQENPAFLPGTNNNSNSNNNSSNEKEQLSFINPKTGKVERSEAISKKDLEEVKRFQVLYPCYFDINRSHKEGRRVPKELAVENPLAKTMADAVRELGILCIFEGEKCHPQDFGNPGRIRVLFKENGQLIGAATKFKGGKRQLMKAVGEYMKRHPTTIESLREIPYGPDFDNIEFKKIPRVKGFKMNEIVPLHSPFLMGHPMTKSVYETPKITAAEKSFKPPKNKYKVVRR
notes: Sec65 of yeast, cloned into the XhoI and BamHI sites of pET19b; source: E. coli Rosetta (DE3), purified (Ni-NTA)
B2: His-tagged SRP14 (natural protein, yeast (S. cerevisiae), UniProt P38985 1-146, looked up)
chain: MANTGCLSPGAFLSKVPEFFQTANEKHITVRLTAKRLIEHDPVEGNLEFDSTNHPDYDVSKKASEISVSSRSDREYPLLIRMSYGSHDKKTKCSTVVKASELDQFWQEYSSVFKGGMQNLIKKKKKKSKNGTISKTGKKNKVAKKN
notes: SRP14 of yeast, subcloned into the NdeI and XhoI sites of pET22b; source: E. coli Rosetta (DE3), purified (Ni-NTA)

Experiments:
Recombinant Ded1-His [1] = target: T1, Recombinant Ded1-His (Saccharomyces cerevisiae, UniProt P06634 1-604); test: co-IP; purified Ded1 (4 µg) incubated with one purified SRP protein (4-6 µg), no RNA, 1x PBS with 2 mM MgCl2, 45 min, 30 °C; recovered with Ded1-specific IgG cross-linked to protein A-Sepharose beads; SDS-PAGE, Coomassie blue; details: both partners purified
T1 construct: Ded1, DEAD-box RNA helicase of budding yeast, expressed from the pET22b plasmid; also called purified Ded1

Recombinant Ded1-His [2] = target: T1, Recombinant Ded1-His; test: co-IP; as a3, but SRP14, SRP21, SRP54 and Sec65 incubated together with Ded1; recovered with Ded1-specific IgG beads; details: both partners purified

T1 sequence (P06634 whole entry): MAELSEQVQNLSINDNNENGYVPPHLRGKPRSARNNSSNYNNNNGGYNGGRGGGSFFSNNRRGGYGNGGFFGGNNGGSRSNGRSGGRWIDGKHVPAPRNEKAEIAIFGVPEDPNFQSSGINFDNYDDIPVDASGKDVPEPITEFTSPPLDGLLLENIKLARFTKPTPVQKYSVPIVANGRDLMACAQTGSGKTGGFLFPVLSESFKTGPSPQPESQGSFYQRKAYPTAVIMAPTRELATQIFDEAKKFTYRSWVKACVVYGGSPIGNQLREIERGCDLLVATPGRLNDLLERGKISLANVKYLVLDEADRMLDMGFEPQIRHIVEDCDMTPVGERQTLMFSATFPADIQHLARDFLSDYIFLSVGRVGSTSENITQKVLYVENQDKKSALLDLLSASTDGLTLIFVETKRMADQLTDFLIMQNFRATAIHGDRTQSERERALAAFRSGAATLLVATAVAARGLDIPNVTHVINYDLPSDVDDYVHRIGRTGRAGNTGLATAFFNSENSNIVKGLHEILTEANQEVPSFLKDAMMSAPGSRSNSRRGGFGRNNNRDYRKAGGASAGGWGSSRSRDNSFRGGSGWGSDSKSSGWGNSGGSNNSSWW

Row | binding result (Recombinant Ded1-His [1]) | binding result (Recombinant Ded1-His [2]) | Binder
1 | binds |  | B1
2 |  | binds | B2
